Measurements: patent US5994310A, “Peptide ligands for affinity purification of human Factor VIII” (Bayer Corporation, priority 1998, dated 1999)
Where no end group is shown, it is not given here.

Experiments:
human Factor VIII [1] = biological target: T1, human Factor VIII (Homo sapiens, UniProt P00451); assay: Secondary chromatography binding assay (ELISA quantitation of column fractions); settings: rhFVIII load 10 μg on peptide-resin column; for Elute Total μg: FVIII by ELISA in elution (Buffer C) fraction; for Flow-Through Total μg: FVIII by ELISA in flow-through fraction; for Salt Wash Total μg: FVIII by ELISA in salt wash (Buffer B) fraction
T1 construct: (the applicant)
Procedure: The secondary chromatography binding assays were performed upon a Michrom Bioresources HPLC (Auburn, Calif.). This binary system has the added advantage of a second injection loop which was outfitted with a 5 ml loop. This allowed addition of a third solvent during the HPLC run. Buffer A was 20 mM Imidazole, pH=7.0, 10 mM CaCl2, 300 mM NaCl, 0.01% Tween 80. Buffer B is the same as buffer A but with 1M NaCl and 1M CaCl2. Elution buffer (Buffer C) is the same as buffer A but with 40% ethylene glycol monomer and 250 mM CaCl2. Absorbance was monitored at 280 nm.
Confirmatory FVIII binding assays were performed in a column chromatographic format on the HPLC described above. Batch synthesized peptide-resin (substitution at 100 μmoles/g) was loaded and washed as described in Buettner, J., 1996, supra. The HPLC method injected the sample onto the column at 80 cm/hr linear velocity, allowed for flow-through of unbound protein, then stepped to 200 cm/hr for the wash with Buffer B (as described above), and then the bound protein eluted with Buffer C (as described above). FIGS. 1, 2 and 3 show the results from contacting a known amount of human Factor VIII to each of the preferred peptide-resins (sequence ID 1, 2 and 3, respectively).
Recombinant FVIII was applied to each column as described above. […] ELISA quantitation utilized a polyclonal antisera as capture antibody adsorbed onto the plate well, application of each fraction allowed the Factor VIII to adhere to the capture antibody. The making and using of polyclonal and monoclonal antibodies is well-know, and within the skill of one of ordinary skill in the art. See generally Antibodies, A Lab Manual, Harlow and Lane, eds., 1988, Cold Spring Harbor. Then a panel of 3 monoclonal antibodies were used to identify the Factor VIII and detection of these antibodies with a secondary-antibody enzyme conjugate allowed accurate quantitation of the Factor VIII. The flow-through fractions from each injection show greater than 96% target protein depletion by these peptide ligands. […] The binding avidity was weak enough to permit recovery of target protein during the elution phase of the chromatography.

human Factor VIII [2] = biological target: T1, human Factor VIII; assay: Preparative hrFVIII purification by peptide resins, fractions assayed for Factor VIII activity (Coatest VIII:C/4); settings: load KG2DEAE 136 IU; for Elute Total IU / Flow-Through Total IU / Salt Wash Total IU: Coatest
Procedure: Preparative batch synthesis of the preferred sequences was performed using 10 g TSK resin (Toyopearl AF-Amino-650M, TosoHaas, Inc., Montgomeryville, Pa.) as described in Buettner, J., 1996, supra. […] Three injections of an in-process sample of human Factor VIII were contacted with each resin and fractions of flow-through, salt wash and elution were tested for biological activity, protein profile by SDS-PAGE, and target protein identification by Western blot analyses, as described in Buettner, J., 1996, supra. Biological activity was defined as the ability of the column fraction to reconstitute Factor VIII-depleted plasma to thereby activate Factor X to Factor Xa, with quantitation of enzymatic activity by spectrophotometric measurement of cleaved substrate. (Coatest VIII:C/4, Chromogenix, Molndal, Sweden).
FIGS. 4, 5 and 6 show the purification chromatograms for binding of the rhFVIII to SEQ IDs 1, 2 and 3, respectively. In each figure, the bottom HPLC trace is the buffer blank injection; the three other HPLC traces are subsequent injections of the KG2DEAE sample. For each chromatogram, flow-through occurs from t=0-22 minutes; salt wash at t=26-34 minutes; elution at t=44-54 minutes. Each fraction (flow-through, salt wash and elution) was collected and assayed for Factor VIII activity by the above described Coatest assay.

T1 sequence (P00451 20-2351): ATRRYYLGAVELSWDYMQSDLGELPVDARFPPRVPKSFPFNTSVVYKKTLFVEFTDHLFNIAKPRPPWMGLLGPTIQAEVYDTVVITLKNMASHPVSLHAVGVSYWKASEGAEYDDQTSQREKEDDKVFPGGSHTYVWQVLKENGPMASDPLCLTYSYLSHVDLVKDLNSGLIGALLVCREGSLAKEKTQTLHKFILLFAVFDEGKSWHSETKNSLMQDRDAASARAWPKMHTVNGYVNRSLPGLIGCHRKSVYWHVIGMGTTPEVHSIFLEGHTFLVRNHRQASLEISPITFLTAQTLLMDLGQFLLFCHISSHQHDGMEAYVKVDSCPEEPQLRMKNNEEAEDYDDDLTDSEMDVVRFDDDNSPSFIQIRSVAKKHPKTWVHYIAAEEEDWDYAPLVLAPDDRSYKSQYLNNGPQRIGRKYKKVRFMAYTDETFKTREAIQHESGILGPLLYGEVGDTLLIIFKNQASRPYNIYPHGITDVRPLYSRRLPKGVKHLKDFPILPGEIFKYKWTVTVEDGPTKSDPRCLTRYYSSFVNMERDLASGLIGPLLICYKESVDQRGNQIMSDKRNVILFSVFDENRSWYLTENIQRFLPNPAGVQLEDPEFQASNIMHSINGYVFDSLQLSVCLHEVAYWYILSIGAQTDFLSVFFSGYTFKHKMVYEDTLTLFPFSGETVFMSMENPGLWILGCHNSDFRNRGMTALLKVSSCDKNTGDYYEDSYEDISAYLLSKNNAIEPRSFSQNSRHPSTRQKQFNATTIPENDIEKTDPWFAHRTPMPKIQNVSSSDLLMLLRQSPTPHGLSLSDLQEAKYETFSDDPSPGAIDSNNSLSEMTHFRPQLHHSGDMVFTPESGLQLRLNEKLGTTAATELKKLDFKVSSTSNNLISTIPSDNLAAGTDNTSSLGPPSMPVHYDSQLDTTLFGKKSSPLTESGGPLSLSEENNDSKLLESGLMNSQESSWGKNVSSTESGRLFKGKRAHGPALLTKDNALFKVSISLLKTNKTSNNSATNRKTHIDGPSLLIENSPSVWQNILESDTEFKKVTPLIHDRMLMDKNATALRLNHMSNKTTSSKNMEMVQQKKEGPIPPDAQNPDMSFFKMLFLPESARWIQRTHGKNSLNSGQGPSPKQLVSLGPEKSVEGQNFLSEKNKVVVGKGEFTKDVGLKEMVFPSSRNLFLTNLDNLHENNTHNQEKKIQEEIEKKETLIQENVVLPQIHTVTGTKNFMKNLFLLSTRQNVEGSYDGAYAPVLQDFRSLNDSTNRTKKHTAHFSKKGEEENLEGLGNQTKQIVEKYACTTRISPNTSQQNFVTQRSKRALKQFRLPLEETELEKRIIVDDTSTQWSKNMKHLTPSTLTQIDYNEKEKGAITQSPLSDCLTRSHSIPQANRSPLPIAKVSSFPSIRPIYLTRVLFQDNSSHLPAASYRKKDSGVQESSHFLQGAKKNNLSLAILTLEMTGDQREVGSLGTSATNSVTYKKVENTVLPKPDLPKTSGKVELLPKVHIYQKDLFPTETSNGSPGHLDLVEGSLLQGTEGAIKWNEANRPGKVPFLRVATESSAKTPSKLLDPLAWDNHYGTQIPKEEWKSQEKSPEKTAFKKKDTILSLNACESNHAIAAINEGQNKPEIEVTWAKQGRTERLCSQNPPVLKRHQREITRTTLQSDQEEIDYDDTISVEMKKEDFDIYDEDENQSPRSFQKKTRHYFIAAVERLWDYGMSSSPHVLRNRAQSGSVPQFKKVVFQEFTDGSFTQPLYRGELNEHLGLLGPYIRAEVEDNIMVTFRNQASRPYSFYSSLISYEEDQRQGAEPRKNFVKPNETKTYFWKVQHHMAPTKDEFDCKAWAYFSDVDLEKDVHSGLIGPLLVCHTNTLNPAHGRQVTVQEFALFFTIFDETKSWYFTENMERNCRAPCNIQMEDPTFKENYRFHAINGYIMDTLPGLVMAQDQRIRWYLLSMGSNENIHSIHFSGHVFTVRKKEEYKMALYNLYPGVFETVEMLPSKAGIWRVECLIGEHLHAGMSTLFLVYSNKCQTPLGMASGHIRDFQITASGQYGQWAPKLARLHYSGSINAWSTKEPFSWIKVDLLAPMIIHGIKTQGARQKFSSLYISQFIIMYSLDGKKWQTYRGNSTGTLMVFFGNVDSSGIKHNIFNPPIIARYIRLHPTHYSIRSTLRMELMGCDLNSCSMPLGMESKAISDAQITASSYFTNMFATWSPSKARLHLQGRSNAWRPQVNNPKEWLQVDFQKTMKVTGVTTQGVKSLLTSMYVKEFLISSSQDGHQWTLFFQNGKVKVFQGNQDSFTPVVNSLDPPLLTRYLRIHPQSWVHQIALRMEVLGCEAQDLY

Substance	Elute Total μg (human Factor VIII [1]) [µg]	Flow-Through Total μg (human Factor VIII [1]) [µg]	Salt Wash Total μg (human Factor VIII [1]) [µg]	Elute % Recovery (human Factor VIII [2]; inj 2) [%]	Purification (human Factor VIII [2]; inj 2)	Elute Total IU (human Factor VIII [2]; inj 2) [IU]	Flow-Through Total IU (human Factor VIII [2]; inj 2) [IU]	Salt Wash Total IU (human Factor VIII [2]; inj 2) [IU]	Elute % Recovery (human Factor VIII [2]; inj 3) [%]	Purification (human Factor VIII [2]; inj 3)	Elute Total IU (human Factor VIII [2]; inj 3) [IU]	Flow-Through Total IU (human Factor VIII [2]; inj 3) [IU]	Salt Wash Total IU (human Factor VIII [2]; inj 3) [IU]	Elute % Recovery (human Factor VIII [2]; inj 4) [%]	Purification (human Factor VIII [2]; inj 4)	Elute Total IU (human Factor VIII [2]; inj 4) [IU]	Flow-Through Total IU (human Factor VIII [2]; inj 4) [IU]	Salt Wash Total IU (human Factor VIII [2]; inj 4) [IU]
His-Gln-Tyr-Gly-Tyr-His (HQYGYH; not fully specified; printed as His-Gln-Tyr-Gly-Tyr-His)	10.31	0.00	0.85	46	1.00	62	2	3	52	1.53	71	1	3	55	1.47	75	1	3
His-Ile-Gln-His-Tyr-His (HIQHYH; not fully specified; printed as His-Ile-Gln-His-Tyr-His)	7.26	0.00	0.74	31	1.22	42	1	4	38	1.54	52	1	7	33	1.48	45	1	9
Trp-His-Tyr-Tyr-His-Gly (WHYYHG; not fully specified; printed as Trp-His-Tyr-Tyr-His-Gly)	5.31	0.03	0.14	26	1.15	35	5	2	41	1.75	56	2	2	40	1.64	54	6	5
